According to publication PMC4374960 (2015):

B1: CarDNt, the 179-residue N-terminal domain of Myxococcus xanthus CarD (in pKT25) [Myxococcus xanthus] / Mxβ_(19–148), M. xanthus RNA polymerase β subunit fragment spanning residues 19 to 148 (in pUT18C) [Myxococcus xanthus] (parent complex)
chain 1: MPEGSASLQLAVGDRVVYPNQGVCRVSAIDVKEVAGQKLTFVTMRREEDGAVVMVPEGKVLAIGVRKVASAEDVEAIFTFLRSDSDKADLDWKQRARTNLDRMTQGGIMGLAEVVKGLQVLSELRPLPTKERELYDNARHLLVTEVAAALGTAEVNAEDAIDIVLFPPGRERPKRTAAE
chain 2: AKIIDIPNLINIQKQSYEKFLQADIAADKREDLGLQGVFKSVFPIRDFNETSSLEFVSYHLERPKYDVDECHQRGMTYSAPIKVVVRLVVWDKDEETGAQSIRDVKEQEVYFGEIPLMTQNGTFIINGTE

Variants of: B1
Experiment: BACTH analysis (β-Gal activity); Mxβ19–148 mutants in pUT18C; CarDNt in pKT25; mean and standard error of three independent experiments; parent: 2.6e+03; read off a plot

| Variant | response |
| --- | --- |
| chain 2 D104A | ~1800 |
| chain 2 E107A | ~90 |

More lines, now with the values ahead:

| response | Variant |
| --- | --- |
| ~610 | chain 2 V105A |
| ~2100 | chain 2 K106A |

Variants of: B1
Experiment: BACTH analysis (β-Gal activity); CarDNt mutants in pKT25; Mxβ19–148 in pUT18C; mean and standard error of three independent experiments; parent: 2.7e+03; read off a plot

| response | Variant |
| --- | --- |
| ~130 | chain 1 F41A |
| ~130 | chain 1 M54A |
| ~230 | chain 1 P56A |
